According to patent US20250228937A1, “MEDICAMENT FOR TREATMENT AND/OR PREVENTION OF CANCER” (TORAY INDUSTRIES, INC., priority 2021, published 2025):
Changes are numbered by the printed parent chain. Blank lines part the entries; values can stand above or below the binder they belong to.

Target: T1, human CAPRIN-1 protein expressed on cell membrane surfaces of human cancer cells (human, UniProt Q14444 2-709)
T1 construct: whole, on cells; only a portion of CAPRIN-1 is said to be on the membrane surface
T1 sequence (looked up): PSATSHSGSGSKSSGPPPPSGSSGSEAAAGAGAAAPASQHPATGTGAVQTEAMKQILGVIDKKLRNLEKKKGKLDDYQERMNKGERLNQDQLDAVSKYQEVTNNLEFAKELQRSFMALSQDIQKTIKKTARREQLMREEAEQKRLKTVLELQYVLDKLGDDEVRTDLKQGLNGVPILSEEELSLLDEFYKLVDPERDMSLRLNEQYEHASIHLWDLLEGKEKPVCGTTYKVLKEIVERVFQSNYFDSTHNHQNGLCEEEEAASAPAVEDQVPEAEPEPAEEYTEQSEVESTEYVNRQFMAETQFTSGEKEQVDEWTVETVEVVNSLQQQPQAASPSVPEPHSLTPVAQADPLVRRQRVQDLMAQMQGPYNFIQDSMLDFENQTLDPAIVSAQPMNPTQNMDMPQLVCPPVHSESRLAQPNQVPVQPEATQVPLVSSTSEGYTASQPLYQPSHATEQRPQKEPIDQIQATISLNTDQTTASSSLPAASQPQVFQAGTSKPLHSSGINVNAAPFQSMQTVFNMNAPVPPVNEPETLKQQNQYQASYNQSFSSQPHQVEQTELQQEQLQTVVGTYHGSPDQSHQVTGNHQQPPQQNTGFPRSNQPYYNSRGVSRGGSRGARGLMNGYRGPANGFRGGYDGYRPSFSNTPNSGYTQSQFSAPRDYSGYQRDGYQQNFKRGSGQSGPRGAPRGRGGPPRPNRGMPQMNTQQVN
Assay: flow cytometry on cancer cells expressing CAPRIN-1

- binding result: binds
B1: anti-CAPRIN-1 antibody (z) (antibody, V domains shown)
VH: GPDLVKPGASVKISCKASGYSFTAYYMHWVKQSHGKSLEWIGRVNPNNGGTTYNQKFKGKAILTVDKSSSTAYMELRSLTFEDSAVYYCARRIYYGYFDYWGQGTTVTVSS
VL: AFFAVSLGQRATISCKASQSVDYDGDSYMNWYQQKPGQPPKLLIYVASNLESGVPARFSGSGSGTDFTLNIHPVEEEDAATYYCQQSNEDPYTFGGGTKLEIKQ

- binding result: binds
B2: anti-CAPRIN-1 antibody (o) (antibody, V domains shown)
VH: EVQLHQFGAELVKPGASVKISCKASGYTFTDYNMDWVKQSHGKSLEWIGDINPNYDSTSYNQKFKGKATLTVDKSSSTAYMELRSLTSEDTAVYYCARSRSYDYEGFAYWGQGTLVTVSA
VL: DIQMTQSPASLSASVGETVTITCRASGNIHNYLAWYQQKQGKSPQLLVYNAKTLADGVPSRFSGSGSGTQYSLKINSLQPEDFGSYYCQHFWSTLTFGAGTKLELKR

- binding result: binds
B3: anti-CAPRIN-1 antibody (j) (antibody, V domains shown)
VH: DAELVKPGASVKISCKASGYTFTDHSIHWVQQKPEQGLEWIGYISPGNGNIKYNEKFKGKATLTADKSSSTAYMQLNSLTSEDSAVYFCKRSLGRGGPYYFDYWGQGTTVTVSS
VL: DIVLTQAAPSLPVTPGESVSISCRSSKSLLHSNGNTYLYWFLQRPGQSPQLLIYRMSNLASGVPDRFSGSGSGTAFTLRISRVEAEDVGVYYCMQHREYPVTFGSGPN

- binding result: binds
B4: anti-CAPRIN-1 antibody (af) (antibody, V domains shown)
VH: EVQLVESGGGLVQPGGSLRLSCAASGFSLSSHSLGWVRQAPGKGLEWIGDIRSGGSAYYANWAKGRFTISRDNSKNTLYLQMNSLRAEDTAVYYCTRTNGPSDLTNRLDLWGQGTLVTVSS
VL: QVLTQSPSSLSASVGDRVTINCQASQSLYNNENLAWFQQKPGKVPKRLIYGASTLASGVSSRFSGSGSGTEFTLTISSLQCEDFAIYYCLGEFSCGSADCFAFGGGTKVEIK

- binding result: binds
B5: anti-CAPRIN-1 antibody (ah) (antibody, V domains shown)
VH: B4 VH
VL: EQVLTQSPSSLSASVGDRVTINCQASQSLYNNENLAWFQQKPGKVPKRLIYGASTLASGVSSRFSGSGSGTEFTLTISNLQPEDFAIYYCLGEFSCGSADCFAFGGGTKVEIK

- binding result: binds
B6: anti-CAPRIN-1 antibody (b) (antibody, V domains shown)
VH: B4 VH with V2Q, Q3S
VL: B4 VL

- binding result: binds
B7: anti-CAPRIN-1 antibody (ag) (antibody, V domains shown)
VH: B4 VH with Y94F
VL: B4 VL

- binding result: binds
B8: anti-CAPRIN-1 antibody (d) (antibody, V domains shown)
VH: QSLEESGGDLVKPGASLTLTCTASGFSFSGSYYMSWVRQAPGKGLEWIAYIYIGDGVTAYANWAKGRFTISKASSTTVTLQMTSLTAADTATYFCARGNKLWGPGTLVTVSS
VL: DVVMTQTPASVEAAVGGTVTIKCQASQSISSYLAWYQQKPGQPPKRLIYDASNLDSGVPSRFKGSGSGTDFTITISDLECADAATYYCQCTAVSSATIYGNAFGGGTEVVVK

- binding result: binds
B9: anti-CAPRIN-1 antibody (e) (antibody, V domains shown)
VH: AVTLDESGGGLQTPGGALSLVCKASGFTFSGYDMLWVRQAPGKGLEWVAGIGSTGGGTDYGAAVKGRATISRDNGQSTVRLQLNNLRAEDTATYYCAKVAGGCNSGYCRDSPGSIDAWGHGTEVIVS
VL: AVTQQPASVSANPGETVKITCSGGGSRNYYGWYQQKSPGSVPVTVIYYDDQRPSNIPSRFSGALSGSTSTLTITGVQADDEAVYFCGSADSNTYEGSFGAGTTLTVL

- binding result: binds
B10: anti-CAPRIN-1 antibody (i) (antibody, V domains shown)
VH: GAELVRSGASVKMSCKASGYSFTDYNMYWVKQTPGQGLEWIGYIYPGNGGTNYNQKFKGKATLTADTSSSTAYMQISSLTSEDSAVYFCARDYDDGGYAMDYWGQGTTVTVSS
VL: DIQMTQSPASLSASVGETVTITCRASGNIHNYLTWYQQKQGKSPQLLVYNAKTLADGVPSRFSGSGSGTQYSLKINRLQPEDFGSYYCQHFWNIPWTFGGGTKLNSR
